# From the supplement of paper PMC10567573
# B1: GFOD1 (parent)
# chain: EEAEELAKEMSVPFYTSRIDEVLL
# Variants of: B1
# Assay: protein stability index of a GFP-peptide fusion (GPS, HEK-293T) (PSI 1-6); higher = more stable
# Conditions: c terminus: a fixed tail appended
# 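Further: lentivirally expressed fusions sorted by FACS into six bins by GFP to DsRed ratio, PSI derived from sequencing read proportions per bin multiplied by bin number.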
row,Variant,protein stability index
1,EEAEELAKEMSVPFYTYRIDEVLL [S17Y],2.94
2,EEAEELAKEMSVPFYTWRIDEVLL [S17W],3
3,EEAEELAKEMSVPFYTTRIDEVLL [S17T],3.29
4,EEAEELAKEMSVPFYTNRIDEVLL [S17N],4.04
5,EEAEELAKEMSVPFYTPRIDEVLL [S17P],4.43
6,EEAEELAKEMSVPFYTSRIDEVLE [L24E],4.97
7,EEAEELAKEMSVPFYTSRIDEVLD [L24D],5.2
8,EEAEELAKEMSVPFYTSRIDEVLG [L24G],4.11
9,EEAEELAKEMSVPFYTSRIDEVLH [L24H],3.18
10,EEAEELAKEMSVPFYTSRIDEVLI [L24I],3.75
11,VEAEELAKEMSVPFYTSRIDEVLL [E1V],2.95
12,SEAEELAKEMSVPFYTSRIDEVLL [E1S],4.24
13,GEAEELAKEMSVPFYTSRIDEVLL [E1G],2.43
14,PEAEELAKEMSVPFYTSRIDEVLL [E1P],3.51
15,CEAEELAKEMSVPFYTSRIDEVLL [E1C],3.08
16,TEAEELAKEMSVPFYTSRIDEVLL [E1T],3.56
17,EEAEELAKEMSVPFYTSRIPEVLL [D20P],3.55
18,EEAEELAKEMSVPFYTSRIYEVLL [D20Y],2.47
19,EEAEELAKEMSVPFYTSRINEVLL [D20N],3.29
20,EEAEELAKEMSVPFYTSRIWEVLL [D20W],2.59
21,EEAEELAKEMSVPFYTSRIKEVLL [D20K],2.78
22,EEAEELAKEMSVPFYTSRILEVLL [D20L],2.07
23,EEAEELAKEMSVPFYTSRIMEVLL [D20M],2.33
24,EEAEELAKEMSVPFYTSRIHEVLL [D20H],2.73

row,Variant,protein stability index
1,EEAEELAKEMSVPFYTSRIQEVLL [D20Q],3.79
2,EEAEELAKEMSVPFYTSRITEVLL [D20T],2.66
3,EEAEELAKEMHVPFYTSRIDEVLL [S11H],4.04
4,EEAEELAKEMNVPFYTSRIDEVLL [S11N],2.23
5,EEAEELAKEMIVPFYTSRIDEVLL [S11I],3.29
6,EEAEELAKEMKVPFYTSRIDEVLL [S11K],3.17
7,EEAEELAKEMGVPFYTSRIDEVLL [S11G],2.97
8,EEAEELAKEMLVPFYTSRIDEVLL [S11L],4.46
9,EEAEELAKEMMVPFYTSRIDEVLL [S11M],3.67
10,EEAEELAKEMSQPFYTSRIDEVLL [V12Q],3.91
11,EEAEELAKEMSAPFYTSRIDEVLL [V12A],3.2
12,EEAEELAKEMSHPFYTSRIDEVLL [V12H],3.03
13,EEAEELAKEMSFPFYTSRIDEVLL [V12F],2.91
14,EEAEELAKEMSRPFYTSRIDEVLL [V12R],3.89
15,EEAEELAKEMSEPFYTSRIDEVLL [V12E],4.38
16,EEAEELAKEMSTPFYTSRIDEVLL [V12T],4.2
17,EEAEELAKEMSGPFYTSRIDEVLL [V12G],4.26
18,EEAEELAKEMSKPFYTSRIDEVLL [V12K],3.99
19,EEAEELAKEMSIPFYTSRIDEVLL [V12I],3.6
20,EEAEELAKEMSMPFYTSRIDEVLL [V12M],4.31
21,EEAEELAKEMSSPFYTSRIDEVLL [V12S],4.46
22,EEAEELAKEMSPPFYTSRIDEVLL [V12P],4.14
23,EEAEELAKEMSVPFYTSIIDEVLL [R18I],2.92
24,EEAEELAKEMSVPFYTSVIDEVLL [R18V],2.64

row,Variant,protein stability index
1,EEAEELAKEMSVPFYTSSIDEVLL [R18S],4.56
2,EEAEELAKEMSVPFYTSNIDEVLL [R18N],4.4
3,EEAEELAKEMSVPFYTSYIDEVLL [R18Y],4.04
4,EEAEELAKEMSVPFYTSTIDEVLL [R18T],4.27
5,EEAEELAKEMSVPFYTSCIDEVLL [R18C],4.17
6,EEAEELAKEMSVPFYTSEIDEVLL [R18E],4.65
7,EEAEELAKEMSVPFYTSLIDEVLL [R18L],3.05
8,EEAEELAKEMSVPFYTSRIDEQLL [V22Q],4.65
9,EEAEELAKEMSVPFYTSRIDEFLL [V22F],3.73
10,EEAEELAKEMSVPFYTSRIDESLL [V22S],3.86
11,EEAEELAKEMSVPFYTSRIDETLL [V22T],4.51
12,EEAEELAKEMSVPFYTSRIDEMLL [V22M],4.29
13,EEAEELAKEMSVPFYTSRIDEILL [V22I],3.23
14,EEAEELAKEMSVPFYTSRIDENLL [V22N],4.21
15,EEAEELAKEMSVPFYTSRIDEWLL [V22W],3.62
16,ESAEELAKEMSVPFYTSRIDEVLL [E2S],3.41
17,EHAEELAKEMSVPFYTSRIDEVLL [E2H],3.06
18,ELAEELAKEMSVPFYTSRIDEVLL [E2L],2.76
19,EMAEELAKEMSVPFYTSRIDEVLL [E2M],2.53
20,EIAEELAKEMSVPFYTSRIDEVLL [E2I],2.18
21,EAAEELAKEMSVPFYTSRIDEVLL [E2A],3.66
22,ERAEELAKEMSVPFYTSRIDEVLL [E2R],2.94
23,ENAEELAKEMSVPFYTSRIDEVLL [E2N],4
24,EEAEELAKESSVPFYTSRIDEVLL [M10S],4.12

row,Variant,protein stability index
1,EEAEELAKEVSVPFYTSRIDEVLL [M10V],3.84
2,EEAEELAKELSVPFYTSRIDEVLL [M10L],2.62
3,EEAEELAKECSVPFYTSRIDEVLL [M10C],4.53
4,EEAEELAKEISVPFYTSRIDEVLL [M10I],3.57
5,EEAEELAKEWSVPFYTSRIDEVLL [M10W],4.5
6,EEAEELAKEGSVPFYTSRIDEVLL [M10G],4.22
7,EEAEELAKEMSVPFYTSRIDRVLL [E21R],2.8
8,EEAEELAKEMSVPFYTSRIDQVLL [E21Q],3.39
9,EEAEELAKEMSVPFYTSRIDLVLL [E21L],1.61
10,EEAEELAKEMSVPFYTSRIDPVLL [E21P],3.92
11,EEAEELAKEMSVPFYTSRIDYVLL [E21Y],2.66
12,EEAEELAKEMSVPFYTSRIDMVLL [E21M],1.78
13,EEAEELAKEMSVPFYTSRIDSVLL [E21S],3.83
14,EEAEELAKEMSVPFYTSRIDDVLL [E21D],4.08
15,EEAEELAKEMSVPFYTSRIDEVGL [L23G],3.66
16,EEAEELAKEMSVPFYTSRIDEVSL [L23S],4.54
17,EEAEELAKEMSVPFYTSRIDEVHL [L23H],3.9
18,EEAEELAKEMSVPFYTSRIDEVEL [L23E],5.13
19,EEAEELAKEMSVPFYTSRIDEVYL [L23Y],3.42
20,EEAEELAKEMSVPFYTSRNDEVLL [I19N],5
21,EEAEELAKEMSVPFYTSRHDEVLL [I19H],4.85
22,EEAEELAKEMSVPFYTSRKDEVLL [I19K],4.41
